From US20220204585A1 (RUSH UNIVERSITY MEDICAL CENTER, published 2022)
Positions count from the first letter of the chain named.

B1: Clone 13 149-014-13 VH only (other)
VH: EVQLLESGGGLVQPGGSLRLSCAASGFTFSSDLMSWVRQAPGKGLEWVSAISGSGGSTYYADSVKGRFTISRDNSKNTLYLQMNSLRAEDTAVYYCAKNEVIFDYWGQGTLVTVSSASTKGLSMFDYWGQGTKVEIK
B2: Clone 6 149-014-6 (VL-linker-VH) (scFv)
scFv: QSVLTQPPSASGTPGQRVTISCSGSSSNIGSNYVSWYQQLPGTAPKLLIYDNNKRPSGIPDRFSGSKSGTSATLGITGLQTGDEADYYCGTWDSSLSALYVFGAGTKLTVLGEGKSSGSGSESKASQVQLQESGPGLVKPSETLSLTCSVSGGSTSSYYWSWIRQPPGKGLEWIGYISNSGSTNYNPSLKSRVTMSIDTSNNQFSLKLSSVTAADTAVYYCASHLGATWRWGQGTLVTVSS
notes: From the naive human scFv phage display library
B3: Clone 14 149-014-14 (VK-Linker-VH) (scFv)
scFv: DVVMTQSPLSLPATLGQPASISCRSSQSLVYTDGNTYLNWFQQRPGQSPRRLIYKVSNRDSGVPDRFSGSGSGTHFTLKISRVEAEDVGVYYCMQGTHWPPTFGQGTKVEIKEGKSSGSGSESKASEVQLVQSGAEVKKPGASVKVSCKASGGTFSSYAISWVRQAPGQGLEWMGGIIPIFGTANYAQKFQGRVTITADESTSTAYMELSSLRSEDTAVYYCASSGVDYWGQGTLVTVSS
notes: as for B2
B4: Clone 5 149-014-5 (VL-Linker-VH) (scFv)
scFv: SSELTQDPAVSVALGQTVRITCQGDSLRSYYASWYQQKPGQAPVLVIYGKNNRPSGIPDRFSGSTSGNFASLTITGAQAEDGADYYCHSRDSSGNHLVFGGGTKLTVLGEGKSSGSGSESKASEVQLVQSGAEVKKPGESLKISCKGSGYSFTSYWIGWVRQMPGKGLEWMGIIYPGDSDTRYSPSFQGQVTISADKSISTAYLQWSSLKASDTAMYYCARRARGAFDIWGQGTLVTVSS
notes: as for B2

Assays:
[1] = biological target: T1, CD11b A-domain CD11bA-D242A/F275S/F302G, construct BZ348014 (human, UniProt P11215 148-337); assay: phage ELISA, phage diluted 1:5 on coated antigen (~5 ug/ml), anti-M13-HRP
T1 construct: the antigen on which the libraries were enriched; also called BZ348014 antigen
T1 chain: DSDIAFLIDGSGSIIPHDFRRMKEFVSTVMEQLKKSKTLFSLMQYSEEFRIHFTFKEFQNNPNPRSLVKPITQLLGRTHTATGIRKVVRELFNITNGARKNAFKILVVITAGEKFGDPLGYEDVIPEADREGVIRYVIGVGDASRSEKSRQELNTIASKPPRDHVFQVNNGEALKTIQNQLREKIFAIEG
Procedure: (§1) After 2 rounds of enrichment against the primary target, positive binders were identified by phage ELISA and analyzed by restriction mapping & sequencing for identification of unique clones. Small scale phage growths were diluted 1:5 in TBS+casein. Nunc Maxi-Sorp strip wells were coated at ˜5 ug/ml of each test protein overnight at 4° C. and blocked with TBS+casein. The diluted phage were applied and allowed to bind for 1 hour with shaking. The wells were washed 4 times with TBS+0.05% Tween20 and twice with TBS. Bound phage were detected by incubation for 1 hour with anti-M13-HRP and after washing as above, developed with TMB. Absorbance at 450 nm was read after acidification of the wells.

[2] = biological target: T1, CD11b A-domain …; assay: counterscreen phage ELISA on coated antigen
Procedure: as §1

[3] = biological target: T2, CD11b A-domain CD11bA-D140A/F275S/F302G, construct BZ348010 (human, UniProt P11215 148-337); assay: counterscreen phage ELISA on coated antigen
T2 chain: T1 chain with D9A, A111D
Procedure: as §1

[4] = biological target: T3, CD11b A-domain CD11bA-D140A, construct BZ348008 (human, UniProt P11215 148-337); assay: counterscreen phage ELISA on coated antigen
T3 construct: MIDAS residue D140 replaced with alanine (no MIDAS metal)
T3 chain: T1 chain with D9A, A111D, S144F, G171F
Procedure: as §1

[5] = biological target: T4, CD11b A-domain CD11bA-F275S/F302G, construct BZ348013 (human, UniProt P11215 148-337); assay: counterscreen phage ELISA on coated antigen
T4 chain: T1 chain with A111D
Procedure: as §1

[6] = biological target: T5, CD11b A-domain CD11bA WT (WT residues 132-321), construct BZ348007 (human, UniProt P11215 148-337); assay: counterscreen phage ELISA on coated antigen
T5 construct: Residues numbered on mature CD11b (signal peptide of 16 residues removed); also called His-TEV-CD11b
Procedure: as §1

[7] = biological target: T6, CD11b A-domain CD11bA-D242A, construct BZ348011 (human, UniProt P11215 148-337); assay: counterscreen phage ELISA on coated antigen
T6 construct: MIDAS residue D242 replaced with alanine (no MIDAS metal)
T6 chain: T1 chain with S144F, G171F
Procedure: as §1

[8] = biological target: T1, CD11b A-domain …; assay: phage ELISA dilution series, phage diluted 1:50
[9] = biological target: T2, CD11b A-domain …; assay: phage ELISA dilution series, phage diluted 1:50
[10] = biological target: T3, CD11b A-domain CD11bA-D140A, construct …; assay: phage ELISA dilution series, phage diluted 1:50
[11] = biological target: T4, CD11b A-domain CD11bA-F275S/F302G, …; assay: phage ELISA dilution series, phage diluted 1:50
[12] = biological target: T5, CD11b A-domain CD11bA WT (WT residues …); assay: phage ELISA dilution series, phage diluted 1:50
[13] = biological target: T6, CD11b A-domain CD11bA-D242A, construct …; assay: phage ELISA dilution series, phage diluted 1:50
[14] = biological target: T1, CD11b A-domain …; assay: phage ELISA dilution series, phage diluted 1:5
[15] = biological target: T2, CD11b A-domain …; assay: phage ELISA dilution series, phage diluted 1:5
[16] = biological target: T3, CD11b A-domain CD11bA-D140A, construct …; assay: phage ELISA dilution series, phage diluted 1:5
[17] = biological target: T4, CD11b A-domain CD11bA-F275S/F302G, …; assay: phage ELISA dilution series, phage diluted 1:5
[18] = biological target: T5, CD11b A-domain CD11bA WT (WT residues …); assay: phage ELISA dilution series, phage diluted 1:5
[19] = biological target: T6, CD11b A-domain CD11bA-D242A, construct …; assay: phage ELISA dilution series, phage diluted 1:5
[20] = biological target: T1, CD11b A-domain …; assay: phage ELISA dilution series, phage diluted 1:16
[21] = biological target: T2, CD11b A-domain …; assay: phage ELISA dilution series, phage diluted 1:16
[22] = biological target: T3, CD11b A-domain CD11bA-D140A, construct …; assay: phage ELISA dilution series, phage diluted 1:16
[23] = biological target: T4, CD11b A-domain CD11bA-F275S/F302G, …; assay: phage ELISA dilution series, phage diluted 1:16
[24] = biological target: T5, CD11b A-domain CD11bA WT (WT residues …); assay: phage ELISA dilution series, phage diluted 1:16
[25] = biological target: T6, CD11b A-domain CD11bA-D242A, construct …; assay: phage ELISA dilution series, phage diluted 1:16

Row | Binder | Absorbance at 450 nM [1] | Absorbance at 450 nM [2] | Absorbance at 450 nM [3] | Absorbance at 450 nM [4] | Absorbance at 450 nM [5] | Absorbance at 450 nM [6] | Absorbance at 450 nM [7] | further results
1 | B1 | 0.499 | 0.866 | 0.495 | 0.228 | 0.954 | 0.169 | 0.183 | 
2 | B2 | 0.641 | 1.25 | 1.51 | 0.058 | 1.3 | 0.567 | 0.169 | 
3 | B3 | 0.598 | 1.06 | 0.659 | 0.38 | 0.953 | 0.22 | 0.259 | Absorbance at 450 nM [8]: 0.059; Absorbance at 450 nM [9]: 0.04; Absorbance at 450 nM [10]: 0.047; Absorbance at 450 nM [11]: 0.078; Absorbance at 450 nM [12]: 0.06; Absorbance at 450 nM [13]: 0.045; Absorbance at 450 nM [14]: 0.782; Absorbance at 450 nM [15]: 0.046; Absorbance at 450 nM [16]: 0.372; Absorbance at 450 nM [17]: 1.38; Absorbance at 450 nM [18]: 0.557; Absorbance at 450 nM [19]: 0.2; Absorbance at 450 nM [20]: 0.356; Absorbance at 450 nM [21]: 0.038; Absorbance at 450 nM [22]: 0.08; Absorbance at 450 nM [23]: 0.278; Absorbance at 450 nM [24]: 0.101; Absorbance at 450 nM [25]: 0.054
4 | B4 | 1.37 | 1.69 | 1.74 | 1.85 | 1.65 | 1.78 | 1.77 | 
